For the assay, the target named is T1, full-length His-tagged AQP5 (human, UniProt P55064 1-265).
T1 construct: aquaporin-5 (AQP5), human, full-length construct with His-tag; also called FL-AQP5; full-length AQP5; source: Pichia pastoris X-33, purified (solubilised in NG, Resource S, Superdex 200)
The experiment in a line: MST; labeled PIP at 42 nM, 1:1 dilution series of AQP5; 20 mM phosphate buffer pH 7.5, 100 mM NaCl, 0.8% NG; Hill equation fit on total monomeric AQP5 concentration; triplicates. The conditions noted are these: both partners purified.

From article PMC8391295, “Unraveling Human AQP5-PIP Molecular Interaction and Effect on AQP5 Salivary Glands Localization in SS Patients” (Cells, 2021) come the findings set out here.

Broadly, the Kd is the free concentration of one partner at which half of the binding sites on the other are occupied at equilibrium, for simple one-to-one binding.

T1 sequence (P55064 whole entry): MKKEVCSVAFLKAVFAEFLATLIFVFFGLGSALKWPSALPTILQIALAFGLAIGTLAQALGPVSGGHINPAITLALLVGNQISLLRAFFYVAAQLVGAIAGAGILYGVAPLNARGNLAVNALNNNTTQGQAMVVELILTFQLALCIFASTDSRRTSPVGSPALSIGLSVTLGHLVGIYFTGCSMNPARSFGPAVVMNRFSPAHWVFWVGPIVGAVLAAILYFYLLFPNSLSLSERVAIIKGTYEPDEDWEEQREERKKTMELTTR

B1: mature C-terminal His-tag PIP (prolactin-inducible protein, residues 29-146) (natural protein, human, UniProt P12273 29-146, looked up)
chain: QDNTRKIIIKNFDIPKSVRPNDEVTAVLAVQTELKECMVVKTYLISSIPLQGAFNYKYTACLCDDNPKTFYWDFYTNRTVQIAAVVDVIRELGICPDDAAVIPIKNNRFYTIEILKVE
modifications: non homogeneously glycosylated; labeled with an amine-reactive dye (Monolith NT Protein RED-NHS Labeling Kit) in the MST experiments
notes: also called recombinant PIP; purified PIP; source: Pichia pastoris, secreted into the media, purified (HisTrap HP, Superdex 200); not shown: His6 (thrombin-cleavable), C-terminal, kept
The molecule B1 registered a dissociation constant Kd of 570 nM.
